Measurements as given in publication PMC11961710, “Design and implementation of aerobic and ambient CO2-reduction as an entry-point for enhanced carbon fixation” (Nature Communications, 2025).

T1: BKACE15 (Paracoccus denitrificans, UniProt A1B802)
T1 construct: gene Pden_3578
T1 sequence (A1B802 1-310): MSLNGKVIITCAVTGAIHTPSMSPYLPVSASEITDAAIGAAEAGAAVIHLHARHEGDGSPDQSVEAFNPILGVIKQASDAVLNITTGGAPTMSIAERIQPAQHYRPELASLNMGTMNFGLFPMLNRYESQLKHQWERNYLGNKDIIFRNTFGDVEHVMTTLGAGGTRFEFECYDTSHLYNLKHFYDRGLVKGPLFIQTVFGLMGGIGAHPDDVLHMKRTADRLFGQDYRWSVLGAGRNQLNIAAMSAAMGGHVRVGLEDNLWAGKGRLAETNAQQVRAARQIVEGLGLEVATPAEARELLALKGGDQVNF


Experiments:
BKACE15 = target: T1, BKACE15; assay: crystal structure at […] Å (with acetyl-CoA); product inhibition measured by LC-MS with purified enzyme; format: biochemical
purified protein [1] = substrate: O=CCC(=O)O; assay: purified protein; format: biochemical, Paracoccus denitrificans; details: Zn2+ MSA must enter the active site first, before acetyl-CoA can bind
purified protein [2] = substrate: CC(=O)SCCNC(=O)CCNC(=O)[C@H](O)C(C)(C)COP(=O)(O)OP(=O)(O)OC[C@H]1O[C@@H](n2cnc3c(N)ncnc32)[C@H](O)[C@@H]1OP(=O)(O)O; assay: purified protein; details: Zn2+ active site entry channel, fully occupied upon acetyl-CoA binding

IC50 (BKACE15) [µM] | Molecule | Km (purified protein [1]) [µM] | Km (purified protein [2]) [µM]
1450 ± 160 | CC(=O)CC(=O)O [AAE, acetoacetate] |  | 
 | BKACE15 (Paracoccus denitrificans PD1222) (protein) MSLNGKVIITCAVTGAIHTPSMSPYLPVSASEITDAAIGAAEAGAAVIHLHARHEGDGSPDQSVEAFNPILGVIKQASDAVLNITTGGAPTMSIAERIQPAQHYRPELASLNMGTMNFGLFPMLNRYESQLKHQWERNYLGNKDIIFRNTFGDVEHVMTTLGAGGTRFEFECYDTSHLYNLKHFYDRGLVKGPLFIQTVFGLMGGIGAHPDDVLHMKRTADRLFGQDYRWSVLGAGRNQLNIAAMSAAMGGHVRVGLEDNLWAGKGRLAETNAQQVRAARQIVEGLGLEVATPAEARELLALKGGDQVNF | 830 ± 90 | 110 ± 10
